In patent publication US6509033 (Harvard, dated 2003):

What follows are binders tested against 'Empty' HLA-DR1 purified from insect cells expressing recombinant DR1 cDNA (human).

Binder	Ki
VGSDWRFLRGYHQYA [Pseudo HLA-A2 103-117]	49 nM
RVEYHFLSPYVSPKESP [Transferrin Recpt. 680-696]	< 10 nM
IPADLRIISANGCKVDNS [Na+/K+ ATPase 199-216]	68 nM
SDLSFSKDWSFYL [β2m 52-64]	> 10000 nM
YKHTLNQIDSVKVWPRR [Bovine Fetuin 56-72]	66 nM
KMRMATPLLMQALPM [Invariant Chain (Ii) 107-121]	< 10 nM
LPKPPKPVSKMRMAT [Ii 97-111]	> 10000 nM
